In patent US20080132445A1, “Method for Inducing Mammary Epithelial Cell Differentiation” (Garvan Institute of Medical Reserach, priority 2002, published 2008):

How the values were obtained:
GalR1 = conditions: stated as known; cited from earlier work
[1] = test system: galanin expression (galanin promoter estrogen response element); conditions: Howard et al 1997; Kaplan et al 1988; cited from earlier work
[2] = test system: Gal−/− mice mammary gland; assay: Prl treatment of Gal−/− mice throughout pregnancy (mini-osmotic pump); format: in vivo, mouse
Procedure: (§1) Mammary whole mounts were made by spreading the gland on a glass slide and fixing in 10% formalin solution. Glands were defatted in acetone before carmine alum (0.2% carmine, 0.5% aluminium sulfate) staining overnight. The whole mount was dehydrated using a graded ethanol series followed by xylene treatment for 60 min and storage and photography in methyl salicylate. Morphometric analysis was performed by counting the number of side branches, alveolar buds or lobuloalveoli per mammary gland (n=5) for mammary gland cultures or from 4 representative fields of view from whole 4th inguinal glands.
On the morning of the observation of a vaginal plug, 6-8 week old mice were implanted with a 0.25 μl per hour, 28 day mini-osmotic pump (Alzet) containing unmodified Prl prepared as described (23). Either 0.6 or 1.2 μg were delivered per 24 hr. On the first day post-partum maternal behaviour of mothers was observed, pups were examined for the presence of milk and glands were taken for histological analysis.
(§2) Quantitative PCR was performed using LightCycler technology (Roche). Primers were designed on the basis of mismatch to other genes for WDMN1, β-Actin, WAP, β-casein, […], Elf5, Glycam1, IGF1, GHR, SPOT 14 and PRLR. PCR reactions were performed in 10 μL volume with 1 μL of cDNA, 5 pmoles of each primer and FastStart DNA Master SYBR Green I enzyme mix (Roche) as per manufacturers instructions. Relative quantitation of the product was performed by comparing the crossing points of different samples normalised to an internal control (β-Actin). Each cycle in the linear phase of the reaction corresponds to a two fold difference in transcript levels between samples. Each reaction was performed in triplicate using pooled RNA from the 4-6 mammary glands or the treatment groups utilised for transcript profiling.

[3] = test system: mammary glands (lobuloalveolar development); assay: Mammary gland whole organ culture, morphology and histology; format: cell-based, BALB/c mice
Procedure: as §1
Four week old BALB/c mice were implanted with estrogen, progesterone and cholesterol pellets (Ginsburg and Vonderhaar, 2000). Following nine days of treatment, the whole fourth glands were removed and stretched onto siliconized lens paper and placed into petri dishes containing 2 mL of Waymouths 152/1 medium supplemented with penicillin (100 U/ml), streptomycin (100 μg/ml), gentamycin sulfate (50 μg/ml), 20 mM HEPES, insulin (5 μg/ml), hydrocortisone (100 ng/ml) and aldosterone (100 ng/ml) (basal medium, IAH) to monitor ductal side branching, with and without 100 nM rat galanin (Auspep). […] Medium was changed after 24 hr, then every second day for 6 days before morphology and histology were assessed.

STAT5 = assay: Western analysis of cultured mammary glands: JAK/STAT pathway; format: cell-based, mice; conditions: western blot
Procedure: (§3) Four week old BALB/c mice were implanted with estrogen, progesterone and cholesterol pellets (Ginsburg and Vonderhaar, 2000). Following nine days of treatment, the whole fourth glands were removed and stretched onto siliconized lens paper and placed into petri dishes containing 2 mL of Waymouths 152/1 medium supplemented with penicillin (100 U/ml), streptomycin (100 μg/ml), gentamycin sulfate (50 μg/ml), 20 mM HEPES, insulin (5 μg/ml), hydrocortisone (100 ng/ml) and aldosterone (100 ng/ml) (basal medium, IAH) to monitor ductal side branching, with and without 100 nM rat galanin (Auspep). To assess lobuloalveolar development ovine PRL (Sigma, 1 μg/ml) was added to the basal medium with or without galanin. Glands were maintained in a tri-gas incubator at 50% O2 and 5% CO2 in air. Medium was changed after 24 hr, then every second day for 6 days before morphology and histology were assessed.
(§4) Following RNA extraction from mammary glands using TRIZOL Reagent (Gibco BRL), protein was extracted following the manufacturer's instructions. […] Specific binding was detected using Horseradish peroxidase conjugated secondary antibodies (Amersham Biosciences) with Chemiluminescence Reagent (PerkinElmer) and Biomax Light Film (Eastman Kodak Company).

ERK1/2 = assay: Western analysis of cultured mammary glands: MAP kinase pathway; format: cell-based, mice; conditions: western blot
Procedure: as §3, §4

Akt = assay: Western analysis of cultured mammary glands: PI3 kinase pathway; format: cell-based, mice; conditions: western blot
Procedure: as §3
Following RNA extraction from mammary glands using TRIZOL Reagent (Gibco BRL), protein was extracted following the manufacturer's instructions. Protein was separated using SDS-PAGE (Bio-Rad Laboratories), transferred to PVDF (Millipore) and blocked overnight with 5% skim milk powder, 2% fetal bovine serum, 50 mM sodium phosphate, 50 mM NaCl and 0.1% Tween 20. Membranes were incubated with one of the following primary antibodies: α-milk protein (Accurate Chemical & Scientific Corporation), α-STAT5a (Upstate Biotech), α-phospho-STAT5, α-phospho-Erk1/2, α-Erk2, α-phospho-Akt (S473), α-phospho-Akt (T308), α-Akt (Cell Signaling Technology) or α-β-Actin (Sigma). 20 μg of protein was loaded per lane except for α-milk protein were 400 ng of protein was loaded. Specific binding was detected using Horseradish peroxidase conjugated secondary antibodies (Amersham Biosciences) with Chemiluminescence Reagent (PerkinElmer) and Biomax Light Film (Eastman Kodak Company).

[4] = test system: milk proteins (WAP, α-casein, β-casein); assay: Western analysis of cultured mammary glands: milk protein expression; format: cell-based, mice; conditions: western blot
Procedure: as §3, §4

[5] = test system: mammary gland gene expression; assay: Transcript profiling of cultured mammary glands (Affymetrix MGU74Av2 GeneChips); format: cell-based, mice
Procedure: as §3
Total RNA was extracted using TRIZOL Reagent (Gibco BRL), purified using RNeasy Mini Kit (QIAGEN), cDNA synthesis performed using Superscript II (Invitrogen Life Technologies), synthesis of Biotin-labeled cRNA performed using BioArray HighYield RNA Transcript labeling Kit (Enzo Diagnostics) and hybridised to Affymetrix MGU74v2 GeneChips overnight as per manufacturers instructions. Arrays were performed in duplicate using 4-6 glands per treatment group from two separate replicate experiments. Analysis was performed using the Affymetrix GeneChip v5 software (MAS 5), with treatment groups compared back to IAH treatment as the baseline comparison. Principal Components Analysis was performed using JMP (SAS Institute). Venn diagrams where formed by selecting genes called increasing or decreasing by MAS 5 with a fold change greater then 1.7 compared to IAH. These groups were further restricted by excluding genes with a magnitude fold change >1.2 induced by the other treatments.
as §2

Molecule: GALP (1-60): 60 amino acid neuropeptide, galanin-like peptide, binds GalR1 and GalR2 (APAHRGRGGWTLNSAGYLLGPVLHLPQMGDQDGKRETALEILDLWKAIDGLPYSHPPQPS; Galanin-like peptide; UniProt Q9UBC7 25-84, looked up)
- affinity for GalR1 (GalR1): poor affinity

Molecule: estrogen
- increase of galanin expression [1]: about 4000 fold

B1: PRL: prolactin; ovine PRL (Sigma, 1 μg/ml) in culture, unmodified Prl by mini-osmotic pump in mice (protein, UniProt P01240 31-229, looked up)
Prolactin: TPVCPNGPGNCQVSLRDLFDRAVMVSHYIHNLSSEMFNEFDKRYAQGKGFITMALNSCHTSSLPTPEDKEQAQQTHHEVLMSLILGLLRSWNDPLYHLVTEVRGMKGVPDAILSRAIEIEEENKRLLEGMEMIFGQVIPGAKETEPYPVWSGLPSLQTKDEDARHSAFYNLLHCLRRDSSKIDTYLKLLNCRIIYNNNC
- lactation and pup survival ([2]; 0.6 or 1.2 μg PRL per 24 hours by mini osmotic pump throughout pregnancy): restored lactation and allowed pup survival
- lobuloalveolar density (mammary gland whole mounts) ([2]; PRL throughout pregnancy, 1st day post-partum): partial rescue
- Keratin18 levels ([2]; PRL throughout pregnancy, quantitative RT-PCR): unchanged
- milk protein gene expression (WDMN1, β-casein, WAP), lobuloalveolar differentiation ([2]; PRL throughout pregnancy, quantitative RT-PCR, 1st day post-partum): did not even partially rescue
- number of lobuloalveoli per gland ([3]; IAH medium, PRL 1 μg/ml with or without 100 nM galanin): 8.6±2.1
- ductal or lobuloalveolar development by quantitative morphology and histology ([3]; added to IAH medium, 100 nM galanin or ovine PRL 1 μg/ml, 6 days culture): lobuloalveolar development was observed
- phosphorylated STAT5 / activation of the JAK/STAT pathway (STAT5): dramatic increase
- total STAT5a (STAT5): increase
- phosphorylated ERK / sustained activation of the MAP kinase pathway (ERK1/2): dramatically increased
- total ERK1/2 (ERK1/2): decreased
- mobility of Akt (Akt): decreased mobility
- phosphorylation of T308 and S473 residues of Akt (Akt): did not increase
- total Akt (Akt): no increase
- milk protein synthesis (WAP, α and β casein) [4]: synthesised
- PDGFRA expression ([5]; cultured mammary glands): prevents galanin from reducing
- regulation of galanin or its receptors ([5]; cultured mammary glands): did not regulate
- genes regulated that are not regulated by the other hormone (unique transcriptional influence) ([5]; fold change 1.7 versus IAH): 160 genes
- genes that changed expression in response to all three treatments ([5]; fold change 1.7 versus IAH, 40% of all regulated genes): 136 genes
- genes regulated regardless of the presence of the other hormone ([5]; fold change greater than 1.7 versus IAH): 154 genes
- genes regulated by the other hormone whose regulation is antagonised ([5]; prolactin against galanin's unique genes, galanin against 160 prolactin regulated genes): 30/31
